The chains are these.
T1: Soluble CDCP1 extracellular domain (CDCP1-ECD) (SEQ ID NO:30) fused to Streptavidin Binding Protein (SBP) (human, UniProt Q9H5V8 30-663)
T1 construct: also called SBP-CDCP1-ECD
T1 sequence: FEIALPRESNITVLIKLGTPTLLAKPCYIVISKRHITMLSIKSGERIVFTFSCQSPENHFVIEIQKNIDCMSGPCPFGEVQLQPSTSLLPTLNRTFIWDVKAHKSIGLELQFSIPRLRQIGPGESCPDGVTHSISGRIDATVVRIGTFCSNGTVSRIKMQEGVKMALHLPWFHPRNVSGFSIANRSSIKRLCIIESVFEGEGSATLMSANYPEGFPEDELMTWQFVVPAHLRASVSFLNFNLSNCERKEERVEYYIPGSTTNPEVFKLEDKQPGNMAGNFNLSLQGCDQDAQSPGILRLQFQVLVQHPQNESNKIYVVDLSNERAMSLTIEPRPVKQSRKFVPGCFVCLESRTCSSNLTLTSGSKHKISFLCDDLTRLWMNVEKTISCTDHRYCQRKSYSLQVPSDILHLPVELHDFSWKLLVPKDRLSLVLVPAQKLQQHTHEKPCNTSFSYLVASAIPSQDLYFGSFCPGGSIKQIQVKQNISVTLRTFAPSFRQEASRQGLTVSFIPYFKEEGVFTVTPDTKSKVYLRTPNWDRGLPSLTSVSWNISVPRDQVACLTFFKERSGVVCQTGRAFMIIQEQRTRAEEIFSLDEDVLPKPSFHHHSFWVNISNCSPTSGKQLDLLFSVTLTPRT

B1: hHC4-a / hLC4-e (antibody, V domains shown)
VH: EVQLVESGGGLVKPGGSLRLSCAASGFTFNSYGMSWVRQAPGKGLEWVSTISSGGSYTYYPDSVKGRFTISRDNAKNSLYLQMNSLRAEDTAVYYCARHPDYDGVWFAYWGQGTLVTVSS
VL: DIQMTQSPSSLSASVGDRVTITCSVSSSVFYVHWYQQKPGKAPKLLIYDTSKLASGVPSRFSGSGSGTDFTFTISSLQPEDIATYYCQQWNSNPPTFGGGTKVEIK
B2: hHC4-c / chLC4 (antibody, V domains shown)
VH: B1 VH with K13Q, S49A
VL: QIVLTQSPAIMSASPGEKVTMTCSVSSSVFYVHWYQQKSGTSPKRWIYDTSKLASGVPARFSGSGSGTSYSLTISSMEAEDAATYYCQQWNSNPPTFGGGTKLEIK
B3: hHC4-a / hLC4-K (antibody, V domains shown)
VH: B1 VH
VL: EIVLTQSPATLSLSPGERATLSCRASSSVFYLHWYQQKPGQAPRLWIYDTSKLASGIPARFSGSGSGTDFTLTISSLEPEDFAVYYCQQWNSNPPTFGGGTKVEIK
B4: hHC4-04 / hLC4-e (antibody, V domains shown)
VH: B1 VH with V5L, K13Q, A75S, S78T
VL: B1 VL
B5: hHC4-03 / hLC4-a (antibody, V domains shown)
VH: B1 VH with V5L, K13Q, T50A, A75S, S78T, R98K
VL: B3 VL with R24S, A25V, L32V, W46L
B6: hHC4-04 / hLC4-I (antibody, V domains shown)
VH: B1 VH with V5L, K13Q, A75S, S78T
VL: B3 VL with L4M, H33S, E78Q
B7: hHC4-04 / hLC4-K (antibody, V domains shown)
VH: B1 VH with V5L, K13Q, A75S, S78T
VL: B3 VL
B8: hHC4-03 / hLC4-I (antibody, V domains shown)
VH: B1 VH with V5L, K13Q, T50A, A75S, S78T, R98K
VL: B3 VL with L4M, H33S, E78Q
B9: hHC4-04 / chLC4 (antibody, V domains shown)
VH: B1 VH with V5L, K13Q, A75S, S78T
VL: B2 VL
B10: hHC4-a / hLC4-f (antibody, V domains shown)
VH: B1 VH
VL: B1 VL with F70Y
B11: hHC4-b / hLC4-e (antibody, V domains shown)
VH: B1 VH with G33S, S35N, T50S, T58I, P61A
VL: B1 VL
B12: hHC4-07 / hLC4-f (antibody, V domains shown)
VH: B1 VH with V5L, K13Q, G33A, A75S, S78T, R98K
VL: B1 VL with F70Y
B13: hHC4-03 / hLC4-L (antibody, V domains shown)
VH: B1 VH with V5L, K13Q, T50A, A75S, S78T, R98K
VL: B3 VL with L21M
B14: hHC4-K / hLC4-e (antibody, V domains shown)
VH: B1 VH with T50S, T58I, P61A
VL: B1 VL
B15: hHC4-03 / hLC4-f (antibody, V domains shown)
VH: B1 VH with V5L, K13Q, T50A, A75S, S78T, R98K
VL: B1 VL with F70Y
B16: hHC4-d / hLC4-e (antibody, V domains shown)
VH: B1 VH with V5L, K13Q, A75S, S78T, R98K
VL: B1 VL
B17: hHC4-04 / hLC4-f (antibody, V domains shown)
VH: B1 VH with V5L, K13Q, A75S, S78T
VL: B1 VL with F70Y
B18: hHC4-03 / hLC4-M (antibody, V domains shown)
VH: B1 VH with V5L, K13Q, T50A, A75S, S78T, R98K
VL: B3 VL with L21M, R24G, Q41L, A59D, S76R
B19: hHC4-04 / hLC4-L (antibody, V domains shown)
VH: B1 VH with V5L, K13Q, A75S, S78T
VL: B3 VL with L21M
B20: hHC4-03 / hLC4-b (antibody, V domains shown)
VH: B1 VH with V5L, K13Q, T50A, A75S, S78T, R98K
VL: B3 VL with R24S, A25V, L32V, W46L, F70Y
B21: hHC4-c / hLC4-f (antibody, V domains shown)
VH: B1 VH with K13Q, S49A
VL: B1 VL with F70Y
B22: hHC4-K / hLC4-f (antibody, V domains shown)
VH: B1 VH with T50S, T58I, P61A
VL: B1 VL with F70Y
B23: hHC4-K2 / hLC4-e (antibody, V domains shown)
VH: B1 VH with T50S, P61A
VL: B1 VL
B24: hHC4-b / chLC4 (antibody, V domains shown)
VH: B1 VH with G33S, S35N, T50S, T58I, P61A
VL: B2 VL
B25: hHC4-I / hLC4-e (antibody, V domains shown)
VH: B1 VH with V5L, K13Q, G33A, T50A, P61A, A75S, S78T, R98K
VL: B1 VL
B26: hHC4-H / hLC4-f (antibody, V domains shown)
VH: B1 VH with K13Q, S49A, T58K, P61V
VL: B1 VL with F70Y
notes: also called Humanized CUB4 Antibody No. 146
B27: hHC4-d / hLC4-f (antibody, V domains shown)
VH: B1 VH with V5L, K13Q, A75S, S78T, R98K
VL: B1 VL with F70Y
B28: hHC4-c / hLC4-e (antibody, V domains shown)
VH: B1 VH with K13Q, S49A
VL: B1 VL
B29: hHC4-04 / hLC4-J (antibody, V domains shown)
VH: B1 VH with V5L, K13Q, A75S, S78T
VL: B3 VL with L4M, L21M, E78Q
B30: hHC4-07 / hLC4-e (antibody, V domains shown)
VH: B1 VH with V5L, K13Q, G33A, A75S, S78T, R98K
VL: B1 VL
B31: hHC4-04 / hLC4-L2 (antibody, V domains shown)
VH: B1 VH with V5L, K13Q, A75S, S78T
VL: B3 VL with L21M, R24S, A25V
B32: hHC4-b / hLC4-f (antibody, V domains shown)
VH: B1 VH with G33S, S35N, T50S, T58I, P61A
VL: B1 VL with F70Y
B33: hHC4-H / chLC4 (antibody, V domains shown)
VH: B1 VH with K13Q, S49A, T58K, P61V
VL: B2 VL

Numbering of substitutions follows the chain as printed.

The target of this assay is T1, Soluble CDCP1 extracellular domain …. Put plainly: ELISA on captured SBP-CDCP1-ECD, ratio relative to chimeric CUB4 (chHC4). The protocol: Soluble CDCP1 extracellular domain (CDCP1-ECD) (SEQ ID NO:30) fused to Streptavidin Binding Protein (SBP) was captured on a sreptavidine plate. To define optimal binding of the antibody to SBP-CDCP1-ECD, 384-well polystyrene plates (NUNC, streptavidin-coated) delivered by MicroCoat, Bernried, Germany (ID-No. 1734776-001) have been coated with pure and stepwise diluted HEK293 supernatant (in BSA/IMDM buffer: 100 mg/ml BSA Fraction V, Roche 10735078001, dissolved in Iscove's Modified Dulbeccos Medium). Using a calibration curve of mouse CUB4 antibodies the optimal dilution factor of the HEK293 supernatant in relation to the streptavidin binding capacity of the microtiter plate was identified. For the standard coating, SBP-CDCP1-ECD containing HEK293 supernatant was diluted (between 1:15 and 1:40) and incubated overnight at 2-8° C. (25 μl per well). Intensive washing of the microtiter plate is necessary to remove remaining unbound SBP-CDCP1-ECD.
Humanized CUB4 antibodies and/or reference antibody (chimeric (chHC4) CUB4 antibody comprising human constant region and mouse VH and VL of SEQ ID NO:1 and 2) were tested either undiluted or using a 12-step-dilution. 12.5 μl per well of each sample was incubated for 90 min at room temperature. After intensive washing using PBS-T (0.1% Tween 20 in PBS) 25 μl of either goat anti-human IgG antibodies coupled with HRP (Jackson ImmunoResearch, Code No: 109-036-098, dilution 1:10000) for human antibodies were added and incubated for 1 hour. After intensive washing the binding of the antibodies was detected with ABTS tablets (Roche Diagnostics GmbH, Cat. No.: 1112422). Absorbance at 405 nm/492 nm was measured using a standard photometer.
A general note: In an ELISA, binding on a coated surface is turned into a signal by an enzyme label.
B1: the relative binding ratio is 0.46.
For B2, the relative binding ratio was 1.
Regarding B3, the relative binding ratio amounted to 0.51.
Take B4: the relative binding ratio is 0.2.
As for B5, the relative binding ratio is 0.07.
Take B6: the binding result is “no binding”.
With B7, the relative binding ratio is 0.57.
As to B8, the binding result is given as “no binding”.
With B9, the relative binding ratio was 0.71.
On the same count and under the same terms, to B10 belongs 0.5.
For the molecule B11, the binding result was “no binding”.
On to B12, for which the relative binding ratio amounted to 0.07.
Take B13: the relative binding ratio was found to be 0.17.
Take B14: the binding result is on record as “no binding”.
Turning to B15, the relative binding ratio came out at 0.07.
B16: the relative binding ratio stood at 0.27.
As for B17, the relative binding ratio is 0.37.
B18: the relative binding ratio stood at 0.14.
For the molecule B19, the relative binding ratio was determined as 0.68.
As to B20, the relative binding ratio was 0.07.
With B21, the relative binding ratio was 0.34.
With B22, the binding result was “no binding”.
For the molecule B23, the relative binding ratio turned out to be 0.07.
In the case of B24, the binding result was “no binding”.
Regarding B25, the relative binding ratio was determined as 0.07.
On to B26, for which the relative binding ratio worked out at 0.42.
For B27, the relative binding ratio was found to be 0.4.
Take B28: the relative binding ratio was 0.25.
Take B29: the relative binding ratio came out at 0.4.
B30: the relative binding ratio came to 0.07.
With B31, the relative binding ratio came to 0.67.
In the case of B32, the binding result is on record as “no binding”.
Take B33: the relative binding ratio was 1.12.

The values are drawn from patent publication US20110052582A1 (Hoffmann-La Roche, published 2011).
